Measured values reported in US20120121706A1 (TUFTS MEDICAL CENTER, published 2012).
Each block holds one molecule with its values, some of them ahead of it.

B1: GPVI of human platelets (receptor, UniProt Q9HCN6 21-339, looked up)
chain: QSGPLPKPSLQALPSSLVPLEKPVTLRCQGPPGVDLYRLEKLSSSRYQDQAVLFIPAMKRSLAGRYRCSYQNGSLWSLPSDQLELVATGVFAKPSLSAQPGPAVSSGGDVTLQCQTRYGFDQFALYKEGDPAPYKNPERWYRASFPIITVTAAHSGTYRCYSFSSRDPYLWSAPSDPLELVVTGTSVTPSRLPTEPPSPVAEFSEATAELTVSFTNEVFTTETSRSITASPKESDSPAGPARQYYTKGNLVRICLGAVILIILAGFLAEDWHSRRKRLRHRGRAVQRPLPPLPPLPLTRKSNGGQDGGRQDVHSRGLCS
notes: also called GPVI collagen receptor
B2: proMMP-1 (platelet-associated zymogen of MMP-1) (enzyme, human, UniProt P03956 20-469, looked up)
chain: FPATLETQEQDVDLVQKYLEKYYNLKNDGRQVEKRRNSGPVVEKLKQMQEFFGLKVTGKPDAETLKVMKQPRCGVPDVAQFVLTEGNPRWEQTHLTYRIENYTPDLPRADVDHAIEKAFQLWSNVTPLTFTKVSEGQADIMISFVRGDHRDNSPFDGPGGNLAHAFQPGPGIGGDAHFDEDERWTNNFREYNLHRVAAHELGHSLGLSHSTDIGALMYPSYTFSGDVQLAQDDIDGIQAIYGRSQNPVQPIGPQTPKACDSKLTFDAITTIRGEVMFFKDRFYMRTNPFYPEVELNFISVFWPQLPNGLEAAYEFADRDEVRFFKGNKYWAVQGQNVLHGYPKDIYSSFGFPRTVKHIDAALSEENTGKTYFFVANKYWRYDEYKRSMDPGYPKMIAHDFPGIGHKVDAVFMKDGFFYFFHGTRQYKFDPKTKRILTLQKANSWFNCRKN
notes: Endogenous protein co-immunoprecipitated from platelet lysates; detected by Western with AB8105 or AB806; also called MMP-1 (predominantly in the pro form)

Experiments:
[1] = biological target: PAR4 thrombin receptor on human platelets (human) (UniProt Q96RI0); assay: cell-based or functional assay
PAR4 thrombin receptor on human platelets (human), sequence (Q96RI0 48-385): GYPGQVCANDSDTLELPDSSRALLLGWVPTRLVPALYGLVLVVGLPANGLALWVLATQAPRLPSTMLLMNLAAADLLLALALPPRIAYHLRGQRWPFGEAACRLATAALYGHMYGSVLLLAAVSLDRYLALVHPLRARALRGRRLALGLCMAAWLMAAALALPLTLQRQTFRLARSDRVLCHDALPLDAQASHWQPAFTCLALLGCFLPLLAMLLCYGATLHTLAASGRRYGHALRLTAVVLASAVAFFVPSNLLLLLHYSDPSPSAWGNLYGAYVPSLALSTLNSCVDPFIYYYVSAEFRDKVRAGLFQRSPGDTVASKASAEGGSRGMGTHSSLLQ

[2] = biological target: PAR1 (protease-activated receptor-1) on human platelets (human) (UniProt P25116); assay: cell-based or functional assay
PAR1 (protease-activated receptor-1) on human platelets (human), sequence (P25116 42-425): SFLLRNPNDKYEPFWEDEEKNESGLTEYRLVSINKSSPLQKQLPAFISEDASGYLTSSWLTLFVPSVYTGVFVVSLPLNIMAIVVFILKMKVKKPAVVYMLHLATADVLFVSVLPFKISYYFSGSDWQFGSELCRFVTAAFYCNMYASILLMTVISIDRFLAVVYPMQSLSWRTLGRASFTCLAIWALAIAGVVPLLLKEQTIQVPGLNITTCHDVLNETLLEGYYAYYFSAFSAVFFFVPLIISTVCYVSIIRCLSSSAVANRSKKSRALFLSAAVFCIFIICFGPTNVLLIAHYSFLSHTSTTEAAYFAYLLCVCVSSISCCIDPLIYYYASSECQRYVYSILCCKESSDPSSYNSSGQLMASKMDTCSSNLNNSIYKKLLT

[3] = biological target: B2; assay: co-immunoprecipitation from resting human platelet lysates (anti-GPVI SC20149), Western for MMP-1
Description: (§1) One candidate binding site(s) for the platelet-associated proMMP-1 is the α₂β₁ collagen receptor. To determine if proMMP-1 associates with integrins in resting human platelets, lysates from gel-filtered platelets were incubated with 4-5 μg/ml anti-α₂ (Gi9 or AK7), β₁ (MAB1987), β₃ (MAB1957), GPVI (SC20149), GPIBα (MM2/174) or mouse IgG control for 2-4 h at 4° C. Protein G sepharose was added and incubated for an additional 1 h. Beads were collected and washed 4× in lysis buffer supplemented with 200 mM NaCl.

GPIbα of human platelets = GPIbα of human platelets (human, UniProt P07359 17-652); assay: co-immunoprecipitation from resting human platelet lysates (anti-GPIBα MM2/174), Western for MMP-1
Description: as §1

- collagen-induced platelet aggregation, 3 µM pepducin [1]: 10%
Molecule: P4pal-10 (PAR4 pepducin lipopeptide)

- decrease in growth rate and size of platelet aggregate strings on collagen under arterial flow, 3 µM [2]: 75%
Molecule: P1pal-12 (PAR1 pepducin lipopeptide)

Molecule: B1
- binding result [3]: no binding

Molecule: B2
- binding result (GPIbα of human platelets): no binding
